According to the supplement of paper PMC7877785:
± gives the uncertainty stated by the source.

Experiment: self-splicing fitness, log relative to wild type (ln ratio); higher = more splicing; Tetrahymena group I intron in knt gene, E. coli kanamycin selection, DiMSum; sequences stand for … in CUCUCU…GGAGGGAAAAGUUAUCAGGCAUGCACCUGGUAGCUAGUCUUUAAACCAAUAGAUUGCAUCGGUUUAAAAGGCAAGACCGUCAAAUUGCGGGAAAGGGGUCAACAGCCGUUCAGUACCAAGUCUCAGGGGAAACUUUGAGAUGGCCUUGCAAAGGGUAUGGUAAUAAGCUGACGGACAUGGUCCUAACCACGCAGCCAAGUCCUAAGUCAACAGAUCUUCUGUUGAUAUGGAUGCAGUUCACAGACUAAAUGUCGGUCGGGGAAGAUGUAUUCUUCUCAUAAGAUAUAGUCGGACCUCUCCUUAAUGGGAGCUAGCGGAUGAAGUGAUGCAACACUGGAGCCGCUGGGAACUAAUUUGUAUGCGAAAGUAUAUUGAUUAGUUUUGGAGUACUCGUGGUCG
Method in brief: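 Fitness was computed with DiMSum as the error-weighted combination of replicate fold changes, kanamycin versus none, each normalised to wild type. The library randomised all eight intron nucleotides of the P1ex region, with the intron placed in the knt kanamycin-resistance gene on pET-22b(+) in E. coli BL21(DE3). Six replicate transformations were grown overnight at 37°C or 30°C on LB agar with or without 25 μg/mL kanamycin, plus 100 μg/mL carbenicillin, 50 μM IPTG and 0.2% rhamnose. Pooled colonies were amplicon-sequenced on an Illumina HiSeq 2500.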

Row | Sequence | self-splicing fitness (ln) (30 °C) | self-splicing fitness (ln) (37 °C)
1 | ACACAGCAAUAUUACGGAGG | -2.69 ± 0.076 | -2.15 ± 0.098
2 | CUCAAGCAAUAUUACGCUCU | -4.12 ± 0.25 | -2.39 ± 0.21
3 | GCGAAGCAAUAUUACGCGUU | -2.54 ± 0.15 | -2.77 ± 0.27
4 | AGGAAGCAAUAUUACGGAUC | -1.75 ± 0.16 | -1.02 ± 0.22
5 | GUUCAGCAAUAUUACGUAAA | 0.0969 ± 0.077 | 0.494 ± 0.11
6 | GCAGAGCAAUAUUACGCAUA | -3.11 ± 0.22 | -2.89 ± 0.24
7 | AAAUAGCAAUAUUACGGCGU | -0.263 ± 0.071 | -0.0261 ± 0.095
8 | ACUGAGCAAUAUUACGAAUC | -3.54 ± 0.36 | -2.55 ± 0.21
9 | GGACAGCAAUAUUACGUUGU | -3.63 ± 0.14 | -3.51 ± 0.18
10 | UUUAAGCAAUAUUACGACUU | -2.03 ± 0.12 | -0.889 ± 0.12
11 | GGAAAGCAAUAUUACGACGU | -0.135 ± 0.097 | 0.068 ± 0.1
12 | UGCAAGCAAUAUUACGUCGC | -2.86 ± 0.43 | -2.36 ± 0.49
13 | AUCGAGCAAUAUUACGCUCG | -2.72 ± 0.35 | 
14 | CAAAAGCAAUAUUACGCAAU | -4.03 ± 0.3 | -1.93 ± 0.24
15 | GUCUAGCAAUAUUACGUGCC | -1.54 ± 0.24 | -0.468 ± 0.28
16 | UAUGAGCAAUAUUACGGUAA | -3.33 ± 0.35 | -2.78 ± 0.35
17 | GAUGAGCAAUAUUACGUUAC | -2.14 ± 0.13 | -0.982 ± 0.23
18 | CAAUAGCAAUAUUACGUUGC | -4.82 ± 0.42 | -3.05 ± 0.26
19 | GCUUAGCAAUAUUACGACGC | -0.0232 ± 0.13 | -0.351 ± 0.16
20 | UGUUAGCAAUAUUACGGCCC | -2.13 ± 0.36 | -1.13 ± 0.41
21 | AGCCAGCAAUAUUACGACGU | -0.356 ± 0.068 | -0.487 ± 0.085
22 | UGUGAGCAAUAUUACGUACU | -1.72 ± 0.17 | 0.399 ± 0.15
23 | GUCAAGCAAUAUUACGUUCA | -1.13 ± 0.1 | -0.987 ± 0.16
24 | GCAGAGCAAUAUUACGGUGA | -2.68 ± 0.22 | -2.53 ± 0.24
25 | CGGAAGCAAUAUUACGAUCG | -1.86 ± 0.1 | -1.07 ± 0.14
26 | AGGUAGCAAUAUUACGGUUG | -3.675 ± 0.026 | -2.4 ± 0.039

Row | Sequence | self-splicing fitness (ln) (30 °C) | self-splicing fitness (ln) (37 °C)
27 | CUGAAGCAAUAUUACGUUCA | -1.87 ± 0.11 | -0.567 ± 0.12
28 | UGUAAGCAAUAUUACGACCG | 0.431 ± 0.12 | 0.133 ± 0.18
29 | CAGGAGCAAUAUUACGACAG | -0.986 ± 0.27 | -1.19 ± 0.27
30 | CUGUAGCAAUAUUACGCGGA | -2.92 ± 0.23 | -2.91 ± 0.24
31 | UUGCAGCAAUAUUACGAGAG | -3.54 ± 0.23 | -1.36 ± 0.21
32 | CGUCAGCAAUAUUACGACAC | -1 ± 0.14 | 0.484 ± 0.13
33 | ACUGAGCAAUAUUACGUGCA | -2.8 ± 0.2 | -2.36 ± 0.25
34 | AUGAAGCAAUAUUACGGCAG | 0.378 ± 0.086 | -0.115 ± 0.1
35 | GAAGAGCAAUAUUACGUUGU | -3.56 ± 0.28 | -2.83 ± 0.24
36 | AGAAAGCAAUAUUACGCCCU | 0.0807 ± 0.13 | 0.131 ± 0.14
37 | UACUAGCAAUAUUACGCUGA | -2.48 ± 0.16 | -1.37 ± 0.15
38 | CCAUAGCAAUAUUACGGGCU | -3.65 ± 0.27 | -2.19 ± 0.19
39 | CGUAAGCAAUAUUACGAGUC | -2.82 ± 0.4 | -1.92 ± 0.34
40 | AGGAAGCAAUAUUACGUCCU | -3.89 ± 0.16 | -2.04 ± 0.15
41 | UUGCAGCAAUAUUACGGGGU | -4.28 ± 0.2 | -2.51 ± 0.18
42 | UAGCAGCAAUAUUACGAUAG | -1.78 ± 0.073 | -1.46 ± 0.1
43 | GGAUAGCAAUAUUACGGGGG | -2.14 ± 0.19 | -1.8 ± 0.35
44 | AGUCAGCAAUAUUACGCUAG | -3.33 ± 0.18 | -2.64 ± 0.23
45 | CAGCAGCAAUAUUACGCUUG | -2.88 ± 0.12 | -2.61 ± 0.19
46 | CACUAGCAAUAUUACGAUGC | -3.76 ± 0.18 | -3.05 ± 0.19
47 | UGGAAGCAAUAUUACGGUGU | -1.46 ± 0.14 | -3.33 ± 0.27
48 | AGCAAGCAAUAUUACGAGAG | -3.11 ± 0.2 | -2.42 ± 0.25
49 | CCUUAGCAAUAUUACGUUAC | -3.65 ± 0.35 | -2.91 ± 0.29
50 | AGGGAGCAAUAUUACGUUGC |  | -1.37 ± 0.31
51 | CAUGAGCAAUAUUACGGCCU | -2.67 ± 0.19 | -2.19 ± 0.25
52 | AUUAAGCAAUAUUACGGAUA | -2.12 ± 0.28 | -1.99 ± 0.2

Row | Sequence | self-splicing fitness (ln) (30 °C) | self-splicing fitness (ln) (37 °C)
53 | UGGGAGCAAUAUUACGGGAG | -2.83 ± 0.25 | -2.94 ± 0.43
54 | AAUAAGCAAUAUUACGGGAA | -2.54 ± 0.28 | -0.437 ± 0.2
55 | AAUUAGCAAUAUUACGUCGA | -1.22 ± 0.14 | -0.488 ± 0.15
56 | UGAUAGCAAUAUUACGAAGU | -3.67 ± 0.25 | -3.22 ± 0.26
57 | GGGUAGCAAUAUUACGACAA | -0.573 ± 0.24 | -0.263 ± 0.21
58 | UAAGAGCAAUAUUACGUAAA | -3.2 ± 0.37 | -1.89 ± 0.33
59 | AUCCAGCAAUAUUACGUCGU | -0.689 ± 0.062 | -0.625 ± 0.077
60 | UGCUAGCAAUAUUACGGGGG | -0.837 ± 0.13 | -2.32 ± 0.32
61 | CCAAAGCAAUAUUACGGCAU | -3.72 ± 0.15 | -2.23 ± 0.15
62 | ACAAAGCAAUAUUACGAGUC | -4.66 ± 0.25 | -2.95 ± 0.23
63 | UAAAAGCAAUAUUACGGUUU | -2.78 ± 0.095 | -0.178 ± 0.091
64 | CUACAGCAAUAUUACGUGAU | -2.01 ± 0.063 | -1.18 ± 0.085
65 | UAGUAGCAAUAUUACGUUUG | -2.4 ± 0.18 | -0.923 ± 0.14
66 | CCCCAGCAAUAUUACGUUUA | -3.99 ± 0.16 | -2.35 ± 0.15
67 | CCAUAGCAAUAUUACGCCGU | -4.03 ± 0.34 | -1.91 ± 0.35
68 | UCUCAGCAAUAUUACGUCAC | -3.75 ± 0.19 | -2.55 ± 0.17
69 | AAUAAGCAAUAUUACGCAAG | -1.77 ± 0.1 | -1.59 ± 0.14
70 | UCGCAGCAAUAUUACGAUUU | -3.55 ± 0.34 | -2.24 ± 0.17
71 | CUAUAGCAAUAUUACGUCAA | -3.16 ± 0.2 | -2.7 ± 0.23
72 | AUGGAGCAAUAUUACGAUAU | -1.77 ± 0.12 | -1.17 ± 0.15
73 | ACUUAGCAAUAUUACGCGUA | -1.82 ± 0.2 | -1.18 ± 0.2
74 | GAGAAGCAAUAUUACGAACG | -0.734 ± 0.12 | -0.343 ± 0.17
75 | GAGGAGCAAUAUUACGAAUA | -3.68 ± 0.4 | -3.08 ± 0.38
76 | CAGCAGCAAUAUUACGGUGA | -2 ± 0.083 | -0.913 ± 0.086
77 | UGUGAGCAAUAUUACGUGGC |  | -1.97 ± 0.4
